In PMC5461540, “MOB1 Mediated Phospho-recognition in the Core Mammalian Hippo Pathway” (Molecular & Cellular Proteomics : MCP, 2017):

Biological target: MOB1B 2-216 (UniProt Q7L9L4)
Test: SPOT peptide array overlaid with GST-MOB1B

Substance | binding against the reference (reference: nonphosphorylated T367 15-mer, sites T367) | binding against the reference (reference: nonphosphorylated T353 15-mer, sites T353)
MST1 (from UniProt Q13043) pT367 15-mer | stronger | 
MST1 (from UniProt Q13043) pT353 15-mer |  | stronger
